Patent US20070071681A1, “Apparatus and method for computer modeling type 1 diabetes” (Entelos, Inc., priority 2005, published 2007)

How the values were obtained:
[1] = tested on: average virtual NOD mouse; experiment: Simulation of therapy protocols in the average virtual NOD mouse (computer model of type 1 diabetes); conditions: IL-10; Pennline 1994 protocol; at 28 wks; expectation from published data
Source text: One application of a NOD mouse type 1 diabetes model is to improve understanding of type 1 diabetes pathogenesis in the NOD mouse. Model development therefore focused on islet β cell autoimmunity and tolerance, as well as related mechanisms and interventions. To provide for general immunologic function and not only progression to diabetes, the development effort included representation of several NOD mouse phenotypes. The first phenotype was an average diabetic virtual mouse. […] Typically, a simulation of the average virtual mouse concludes shortly after diabetes diagnosis, which is consistent with post-diabetic sacrifice of NOD mice in the laboratory. […] Additional virtual mice, each with different clinical behaviors and/or underlying pathophysiologies, have also been generated. Similarly, development of modals of type 1 diabetes in other mammals, such as humans, can include the development of various virtual patients representing normal animals or animals having varying degrees of severity or progression of type 1 diabetes.
Because diabetes is typically assessed by measuring blood or urinary glucose, blood glucose levels were represented in the model's clinical read-out. Hyperglycemia (a diabetes indicator) was defined as a glucose level in excess of a commonly used standard (e.g., 200, 250, 300, 350 mg/dl). […]

NOD mouse = conditions: cited from earlier work

B1: IL-10: exogenous recombinant human IL-10 (protein, UniProt P22301 19-178, looked up)
Interleukin-10: SPGQGTQSENSCTHFPGNLPNMLRDLRDAFSRVKTFFQMKDQLDNLLLKESLLEDFKGYLGCQALSEMIQFYLEEVMPQAENQDPDIKAHVNSLGENLKTLRLRLRRCHRFLPCENKSKAVEQVKNAFNKLQEKGIYKAMSEFDIFINYIEAYMTMKIRN
In the case of B1, the “Expected virtual mouse outcome” value [1] is given as “No diabetes at 28 wks”, the Incidence (NOD mouse; IL-10, Pennline 1994, Rx 9-24 wks, 1 μg recombinant human IL-10 daily, 15 wks, at 28 wks, vs 85% control) is given as 25% vs. 85% control at 28 wks and the Insulitis (NOD mouse; IL-10, Pennline 1994) is given as “Reduced severity of insulitis”. For the same molecule, the Disease progression (NOD mouse; IL-10 delivered in various ways) was “protect against disease progression”.
